Holding throughout (test): fluorescence polarisation; IQGAP1 variant titrated to mGppNHp-bound RHO protein (1 μM); equilibrium Kd (eKd), quadratic fit; 30 mM Tris/HCl pH 7.5, 150 mM NaCl, 5 mM MgCl2, 3 mM DTT, 25 °C
What all share (settings): both partners purified
A general note: Polarisation of emitted light reports the rotation of a fluorescent probe.

In test [1] the target is T1, IQGAP1 GRD1-CT (aa 863-1657) (human, UniProt P46940 863-1657).
T1 construct: human IQGAP1, GRD, RGCT and CT domains, aa 863-1657; The GST tag was cleaved 'if needed'; also called C-terminal half of IQGAP1; C-terminal 795 amino acids of IQGAP1
T1 sequence (looked up): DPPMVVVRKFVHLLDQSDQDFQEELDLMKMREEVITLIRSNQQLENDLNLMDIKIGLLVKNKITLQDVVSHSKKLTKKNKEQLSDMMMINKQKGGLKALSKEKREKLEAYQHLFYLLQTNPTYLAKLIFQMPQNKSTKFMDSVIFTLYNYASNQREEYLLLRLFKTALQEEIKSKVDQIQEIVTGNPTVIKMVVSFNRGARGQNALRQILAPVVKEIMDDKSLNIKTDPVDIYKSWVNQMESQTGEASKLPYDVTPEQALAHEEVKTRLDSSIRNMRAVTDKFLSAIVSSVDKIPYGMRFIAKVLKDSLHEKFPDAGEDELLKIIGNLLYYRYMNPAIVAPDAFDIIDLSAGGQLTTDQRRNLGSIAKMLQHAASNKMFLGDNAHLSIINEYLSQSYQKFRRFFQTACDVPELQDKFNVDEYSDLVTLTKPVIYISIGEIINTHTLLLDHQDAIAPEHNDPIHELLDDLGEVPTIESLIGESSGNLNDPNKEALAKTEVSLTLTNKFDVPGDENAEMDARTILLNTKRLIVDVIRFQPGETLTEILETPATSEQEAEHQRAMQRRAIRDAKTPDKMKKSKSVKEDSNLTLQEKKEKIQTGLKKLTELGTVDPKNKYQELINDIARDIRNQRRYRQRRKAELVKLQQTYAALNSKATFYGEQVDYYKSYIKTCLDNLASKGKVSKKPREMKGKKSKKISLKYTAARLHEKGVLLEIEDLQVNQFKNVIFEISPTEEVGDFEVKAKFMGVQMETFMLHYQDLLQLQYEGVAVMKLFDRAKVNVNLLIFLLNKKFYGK

Test [2] concerns the target T2, IQGAP1 GRD1-RGCT wild type (aa 877-1558) (human, UniProt P46940 877-1558).
T2 construct: human IQGAP1, GRD and RGCT domains, lacks the last 99 amino acids, aa 877-1558; also called GRD1-RGCT^WT; IQGAP1^877-1558
T2 sequence (looked up): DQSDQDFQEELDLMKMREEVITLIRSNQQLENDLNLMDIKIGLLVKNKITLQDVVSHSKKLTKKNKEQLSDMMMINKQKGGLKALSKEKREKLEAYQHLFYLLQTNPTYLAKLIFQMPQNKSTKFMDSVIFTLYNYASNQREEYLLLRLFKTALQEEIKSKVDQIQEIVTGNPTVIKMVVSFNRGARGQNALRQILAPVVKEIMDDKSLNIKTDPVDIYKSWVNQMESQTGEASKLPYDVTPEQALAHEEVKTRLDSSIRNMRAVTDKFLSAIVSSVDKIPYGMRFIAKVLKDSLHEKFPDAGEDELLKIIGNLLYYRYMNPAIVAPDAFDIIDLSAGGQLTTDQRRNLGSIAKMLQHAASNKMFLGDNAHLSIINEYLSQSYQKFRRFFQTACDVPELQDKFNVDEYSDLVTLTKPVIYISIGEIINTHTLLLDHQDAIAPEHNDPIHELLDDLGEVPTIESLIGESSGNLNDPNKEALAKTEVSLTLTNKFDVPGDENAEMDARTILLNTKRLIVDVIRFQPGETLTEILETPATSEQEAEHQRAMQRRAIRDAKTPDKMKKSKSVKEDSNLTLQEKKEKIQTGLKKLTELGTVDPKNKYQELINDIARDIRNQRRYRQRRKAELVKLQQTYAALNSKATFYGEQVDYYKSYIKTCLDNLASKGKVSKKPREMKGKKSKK

Test [3] concerns the target T3, IQGAP1 GRD1-RGCT S1443E (aa 877-1558) (human, UniProt P46940 877-1558, S1443E).
T3 construct: human IQGAP1 aa 877-1558 with the phosphomimetic mutation S1443E (printed as S1143E in the methods, S1443E everywhere else), from the vector pET46 EkLIC; source: E. coli (pLysS BL21(DE3), CodonPlusRIL or BL21(Rosetta)), purified (Ni-NTA, gel filtration)
T3 sequence (looked up): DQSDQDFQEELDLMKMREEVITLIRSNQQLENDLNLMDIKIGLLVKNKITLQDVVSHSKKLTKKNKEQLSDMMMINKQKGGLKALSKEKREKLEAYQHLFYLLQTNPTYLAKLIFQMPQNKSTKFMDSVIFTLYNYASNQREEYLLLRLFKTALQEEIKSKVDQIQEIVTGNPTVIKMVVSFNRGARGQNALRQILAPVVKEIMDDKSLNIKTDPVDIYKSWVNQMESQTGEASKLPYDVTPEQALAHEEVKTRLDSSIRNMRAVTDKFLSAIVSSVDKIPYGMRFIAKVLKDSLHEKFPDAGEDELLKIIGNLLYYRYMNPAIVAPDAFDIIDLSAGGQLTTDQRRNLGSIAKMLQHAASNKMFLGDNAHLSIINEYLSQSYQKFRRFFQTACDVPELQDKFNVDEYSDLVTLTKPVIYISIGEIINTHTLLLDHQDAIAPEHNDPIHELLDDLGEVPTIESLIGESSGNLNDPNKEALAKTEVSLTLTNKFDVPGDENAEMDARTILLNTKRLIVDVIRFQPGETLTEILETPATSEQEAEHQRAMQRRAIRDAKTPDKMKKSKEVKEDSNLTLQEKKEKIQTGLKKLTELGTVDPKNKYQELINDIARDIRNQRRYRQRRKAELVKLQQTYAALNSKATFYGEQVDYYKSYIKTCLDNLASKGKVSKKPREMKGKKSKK

The text below walks through data of paper PMC5159498, “IQGAP1 Interaction with RHO Family Proteins Revisited” (The Journal of Biological Chemistry, 2016).

The Kd is a measure of binding affinity in units of concentration.

B1: CDC42 (aa 1-178) (domain or fragment)
chain: not shown
notes: human CDC42, C-terminally truncated, aa 1-178; Loaded non-covalently with mGppNHp, tGppNHp, mGDP or non-fluorescent GppNHp; the nucleotide is named in the format of each assay; also called CDC42^WT; CDC42-mGppNHp
With B1, the Kd in test [1] was determined as 3.4 µM; in test [2], 4.6 µM; in test [3] it was 16.3 µM.
